Assay results taken from the RNAGym collection of RNA variant scans (doi:10.7554/elife.80360).

B1: Hairpin Ribozyme (parent)
chain: GUCCUCUUUCACGUGCGCGUGAAAGAGAGAAGUGAACCAGAGAAACACACGUUGUGGUAUAUUACCUGGUA

Variants of: B1
Assay: self-cleavage, relative activity (ratio to wild type); higher = more cleavage; co-transcriptional

Variant | self-cleavage
GUCCUCUUUGACGUGCGCGUGAAAGAGAGAAGUGAACCAGAGAAACAGACGUUGUGGUAUAUUACCUGGUA [C10G C48G] | 0.0825
GUCCUCUUUCACGUGCGCGUGAAAGAGAGAAGUGAACCAGAGAAAGAUACGUUGUGGUAUAUUACCUGGUA [C46G C48U] | 0.156
GUCAUCUUUCACGUGCGCGUGAAAGAGAGAAGUGAACCAGAGAAACACACGUUGUGGUGUAUUACCUGGUA [C4A A59G] | 0.145
GUCCUCUUUCACGUGCGUGUGAAAGAGAGAAGUGAACCAGAGAAACACACGAUGUGGUAUAUUACCUGGUA [C18U U52A] | 1.09
GUCCUCUUUCACGUGCGCGUGAAAGAGAGAAGUGAACCAGAAAAACACACGUGGUGGUAUAUUACCUGGUA [G42A U53G] | 0.237
GUCCUCUUUCACGUGCGCGUGAAAGAGCGAAGUGAACCAGAGUAACACACGUUGUGGUAUAUUACCUGGUA [A28C A43U] | 0.148
GCCCUCUAUCACGUGCGCGUGAAAGAGAGAAGUGAACCAGAGAAACACACGUUGUGGUAUAUUACCUGGUA [U2C U8A] | 0.191
GUCGUCUUACACGUGCGCGUGAAAGAGAGAAGUGAACCAGAGAAACACACGUUGUGGUAUAUUACCUGGUA [C4G U9A] | 0.162
GUCGUCUUUCACGUGCGCGUGAAAGAGAGAAGUGAACCAGAGAAACACACGUUGUGGUUUAUUACCUGGUA [C4G A59U] | 0.212
GUCCUCUUUCACGUGCGCGUGAAAGAGAGAAGUGAACCAGAGAAACGCACGUUGUGAUAUAUUACCUGGUA [A47G G57A] | 0.151
GUCCUCUUUCACGUGCGCGUGAAAGAGAGAAGUGAACCAGAGAAACAAACGUUGUGGUAUAGUACCUGGUA [C48A U62G] | 0.0864
GUCUUUUUUCACGUGCGCGUGAAAGAGAGAAGUGAACCAGAGAAACACACGUUGUGGUAUAUUACCUGGUA [C4U C6U] | 0.192
GUCCUCUUUCACGUGCGCGUGAAAGAGAGAAGUGAUCCAGAGAAACACACGUUGUGGUAUAUUACUUGGUA [A36U C66U] | 0.166
GUCCUCUUUCACGUGCGCGUGAAAGAGAGAAGUGAACCAGAUAAACACACGUUUUGGUAUAUUACCUGGUA [G42U G54U] | 0.191
GUCCUCUUUCACGUGCGCGUGAAAGAGAGAACUGAACCAGAGAAACACACGUUAUGGUAUAUUACCUGGUA [G32C G54A] | 0.0613
GUCUUCUUUCACGUGCGCGUGAAAGAGAGAAGUGAACCACAGAAACACACGUUGUGGUAUAUUACCUGGUA [C4U G40C] | 0.13
GUCCUCUUUCACGUGCGCGUGAAAGAGAGAAGUGAACCAGAGAAACACACUUUCUGGUAUAUUACCUGGUA [G51U G54C] | 0.135
GUCCUCUUUCACGUGCGCGUGAAAGGGAGAAGUGAACCAGACAAACACACGUUGUGGUAUAUUACCUGGUA [A26G G42C] | 0.357
GUCCUCUUUCACGUGCGCGUGAAAACGAGAAGUGAACCAGAGAAACACACGUUGUGGUAUAUUACCUGGUA [G25A A26C] | 0.124

Variant | self-cleavage
GUCCUCUUUCACGUGCGCGUGAAAGAGAGAAGUGAACCAGAGAAACACACGUUUUGGUAUAUUACCUUGUA [G54U G68U] | 0.302
UUCCUCUUUCACGUGCGCGUGAAAGAGAGAAGUGAACCAGAGAAACACAGGUUGUGGUAUAUUACCUGGUA [G1U C50G] | 0.124
GUCCUCUUUCACGUGCGCGUGAAAGAGAGAAGUGAACCAGAGACACACACGUUGUGGAAUAUUACCUGGUA [A44C U58A] | 0.0929
GUCCUCUUUCACGUGCGCGUGAAAGAGAGAAGUGAACCAGAGAAACACACGUUGCGGUAUAUUACCUGGUG [U55C A71G] | 0.388
GUCCUCUUUCACGUGCGCGUGAAAGAGAGAAGUGAACCAGAGAAACAGACGUUGUGGUAUAUUACCAGGUA [C48G U67A] | 0.259
GUCCUCUUUCACGUGCGCGUGAAAGAGAGAAGUGAACCAGAGAAACACACGGUGUGGUAUAUUACCCGGUA [U52G U67C] | 0.203
GUCCUCUUUCAAGUGCGCUUGAAAGAGAGAAGUGAACCAGAGAAACACACGUUGUGGUAUAUUACCUGGUA [C12A G19U] | 0.995
GUCCUCUUUCACGUGCGCGUGAAAGAGAGAAGUGAACCCGAGAAACACACUUUGUGGUAUAUUACCUGGUA [A39C G51U] | 0.64
GUCCUCUUUCACGUGCGCGUGAAAGAGAGUAGUGAACCAGAGAAACACACGUUGUGGUGUAUUACCUGGUA [A30U A59G] | 0.187
GUCCUCUUUCUCGUGCGCGUGAAAGAGAGAAGUGAACCAGAGAAACACUCGUUGUGGUAUAUUACCUGGUA [A11U A49U] | 0.251
GUUCUCUUUCACGUGCGCGUGAAAGAGUGAAGUGAACCAGAGAAACACACGUUGUGGUAUAUUACCUGGUA [C3U A28U] | 0.582
GUCCUCUUUCACGUGCGCGUGAAAGAGAGAAGUGAACCAGUGAAACACACGUUGUGGUAUAAUACCUGGUA [A41U U62A] | 0.143
GUCCUCUUUCAGGUGCGCGUGAAAGAGAGAAGUGAACCAGAGAAACACACGUUAUGGUAUAUUACCUGGUA [C12G G54A] | 0.543
GUCCUCUUUCACGUGCGCGUGAAAGAGACAAGUGAACCAGAGAAACACACGUUGUGGUAAAUUACCUGGUA [G29C U60A] | 0.139
GUCCUCUUUCACGUGCGCUUGAAAGAGAGAAGUGAACCAGAGAAACACACGUCGUGGUAUAUUACCUGGUA [G19U U53C] | 0.952
GUCCUCUUUCACGUGCGCGGGAAAGAGAGAAGUGAACCAGAGAAACACACGUUGUGGUAUAUUACAUGGUA [U20G C66A] | 0.0821
GUCCUCUUUCACGUGCGCGUGAAUGAGAGAAGUGAACCAGAGAAACACACGUUGUGGUAUAUUACUUGGUA [A24U C66U] | 0.412
GUCCUCUUUCACGUGCGCGUGAAAGAGAGAAGUGAACCAGAGAAACACACGUUGUGGUAUAUUACCCGGUG [U67C A71G] | 0.132
GUCCACUUUCACGUGCGCGUGAAAGAGAGAAGUGAACCAGAGAAACACACGUCGUGGUAUAUUACCUGGUA [U5A U53C] | 0.452
